According to publication PMC7565984, “A Phosphorylation-Induced Switch in the Nuclear Localization Sequence of the Intrinsically Disordered NUPR1 Hampers Binding to Importin” (Biomolecules, 2020):

T1: truncated importin α3 without the IBB domain (residues 64-521) (human, UniProt O00629 64-521)
T1 construct: human importin α3 (KPNA4) without the IBB domain, residues 64-521; also called ΔImpα3; ΔImportin
T1 sequence (looked up): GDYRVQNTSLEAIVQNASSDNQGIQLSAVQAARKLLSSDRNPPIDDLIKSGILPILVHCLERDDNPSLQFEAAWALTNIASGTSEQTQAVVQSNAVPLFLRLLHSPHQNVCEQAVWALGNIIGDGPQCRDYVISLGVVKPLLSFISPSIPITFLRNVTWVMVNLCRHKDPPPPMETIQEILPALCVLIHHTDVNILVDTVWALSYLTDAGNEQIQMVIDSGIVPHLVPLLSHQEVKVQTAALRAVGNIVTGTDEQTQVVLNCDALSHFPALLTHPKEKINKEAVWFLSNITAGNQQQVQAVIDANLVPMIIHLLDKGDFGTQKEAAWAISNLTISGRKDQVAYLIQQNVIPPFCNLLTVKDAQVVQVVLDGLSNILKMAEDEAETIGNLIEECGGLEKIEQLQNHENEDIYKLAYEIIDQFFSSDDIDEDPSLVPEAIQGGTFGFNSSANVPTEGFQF

T2: human importin α3 (intact, with the IBB domain) (human, UniProt O00629 1-521)
T2 construct: human importin α3 (KPNA4), intact protein with the IBB domain; codon-optimized synthetic DNA in the vector pHTP1; also called Impα3; KPNA4; source: E. coli BL21 (DE3), purified (as for ΔImpα3)
T2 sequence (looked up): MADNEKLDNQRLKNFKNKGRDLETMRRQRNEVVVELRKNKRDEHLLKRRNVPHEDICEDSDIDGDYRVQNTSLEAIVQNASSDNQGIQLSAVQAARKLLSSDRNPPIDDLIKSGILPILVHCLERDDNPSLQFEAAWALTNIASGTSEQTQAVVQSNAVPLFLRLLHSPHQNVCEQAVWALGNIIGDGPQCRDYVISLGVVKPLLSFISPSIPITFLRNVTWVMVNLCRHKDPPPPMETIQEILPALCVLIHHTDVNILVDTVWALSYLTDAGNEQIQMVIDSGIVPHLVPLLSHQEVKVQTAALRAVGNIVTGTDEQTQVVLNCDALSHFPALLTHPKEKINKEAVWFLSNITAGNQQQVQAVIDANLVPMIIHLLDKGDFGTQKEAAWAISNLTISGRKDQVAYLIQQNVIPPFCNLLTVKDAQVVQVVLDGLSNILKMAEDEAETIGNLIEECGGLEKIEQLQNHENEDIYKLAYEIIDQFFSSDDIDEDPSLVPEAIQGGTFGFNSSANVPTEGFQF


Key:
[1] = target: T1, truncated importin α3 without the IBB …; test: ITC; Impα3 or ΔImpα3 (10–20 μM) in the cell, NLS-NUPR1 peptide (150–300 μM) in the syringe; Tris 50 mM, pH 8; 298 K; single ligand binding site (1:1) model, n gives the fraction of binding-competent protein; conditions: both partners purified
[2] = target: T2, human importin α3 (intact, with the IBB …); test: as above; conditions: both partners purified

| Kd [1] [µM] | dH [1] [kcal/mol] | stoichiometry N [1] | Kd [2] [µM] | dH [2] [kcal/mol] | stoichiometry N [2] | Binder |
| --- | --- | --- | --- | --- | --- | --- |
| 2.7 | -10.2 | 1.4 | 3.9 | -2.8 | 1.4 | Ac-YTNRPSPGGHERALVTKLQNSE-NH2 (tyrosine introduced at the N terminus for absorbance measurements; not a residue of NUPR1; also called K65A peptide; Lys65Ala; source: synthetic peptide (NZYtech, purity 95%)) [NLS-NUPR1 peptide K65A] |
| 17 | -21.2 |  | 17 | -7.5 |  | Ac-YTNRPSPGGHERKLVEALQNSE-NH2 (tyrosine introduced at the N terminus for absorbance measurements; not a residue of NUPR1; also called T68EK69A peptide; source: synthetic peptide (NZYtech, purity 95%)) [NLS-NUPR1 peptide T68EK69A] |
| 24 | -28.5 |  |  | -16.3 |  | Ac-YTNRPSPGGHERALVEALQNSE-NH2 (tyrosine introduced at the N terminus for absorbance measurements; not a residue of NUPR1; also called K65AT68EK69A peptide; triple mutant; source: synthetic peptide (NZYtech, purity 95%)) [NLS-NUPR1 peptide K65AT68EK69A] |
| 7.6 | -21.3 | 1.4 | 11 | -10.8 | 1.3 | Ac-YTNRPSPGGHERKLVTALQNSE-NH2 (tyrosine introduced at the N terminus for absorbance measurements; not a residue of NUPR1; also called K69A peptide; Lys69Ala; source: synthetic peptide (NZYtech, purity 95%)) [NLS-NUPR1 peptide K69A] |
| 12 | -17.5 |  | 22 | -11.1 |  | Ac-YTNRPSPGGHERKLVEKLQNSE-NH2 (tyrosine introduced at the N terminus for absorbance measurements; not a residue of NUPR1; also called T68E peptide; Thr68Glu; source: synthetic peptide (NZYtech, purity 95%)) [NLS-NUPR1 peptide T68E (phospho-mimetic)] |
